In the DeepSol protein solubility set:

Test: soluble on expression in E. coli; label from the status in PepcDB or PDB records

Sequence	soluble on expression in E. coli
MALETPTPGPPREGQSPASQAGTQHPPAQATAHSQSSPEFKGSLASLSDSLGVSVMATDQDSYSTSSTEEELEQFSSPSVKKKPSMILGKARHRLSFASFSSMFHAFLSNNRKLYKKVVELAQDKGSYFGSLVQDYKVYSLEMMARQTSSTEMLQEIRTMMTQLKSYLLQSTELKALVDPALHSEEELEAIVESALYKCVLKPLKEAINSCLHQIHSKDGSLQQLKENQLVILATTTTDLGVTTSVPEVPMMEKILQKFTSMHKAYSPEKKISILLKTCKLIYDSMALGNPGKPYGADDFLPVLMYVLARSNLTEMLLNVEYMMELMDPALQLGEGSYYLTTTYGALEHIKSYDKITVTRQLSVEVQDSIHRWERRRTLNKARASRSSVQDFICVSYLEPEQQARTLASRADTQAQALCAQCAEKFAVERPQAHRLFVLVDGRCFQLADDALPHCIKGYLLRSEPKRDFHFVYRPLDGGGGGGGSPPCLVVREPNFL	soluble
MGSDKIHHHHHHVVTPEDSPRYPYGNCLYVEDDIPAVLDLGAGGRAFQEIPCEKVQLALISHSHFDHLHGDSFFPRAGLYAGKEESKTYSDENEYLKFHGYELWAEMMPGIKRVAFSEVKPLPDDVPVKPGFRYIPLAGIFKDMERFQLGKTEITAIHLPGHTTGHYGFWIEKEGILFSGDMDLVVAGPWYSSNSADIGQLVSSVQRIREINPGLIVPSHRRLIFDKIEKRLDQYIGVVFKRQERILDLLKEAHTIDELLEYQMVFHGRRDIYLLFWEKMTLRNHIRFLLWEGMVEEVEKGRYKRC	not soluble
MSLRIKLLLRFKPPFLIPYNYPRYLYSFLLRAIELADKEVAGRIHNNKRDIKFVASKFMPIGSTKRLEQGLLVESGTVELYVGSTEDIILESLVRGLGQGVGMLHVRGQRLLSYEAELEEIPKHLSGKRFKTLSPVSVYHNNPPNGFRQWDLSPVGPPNSPFENEPKVWKELLFENLKSKYMMVYGEPYEGSFDIRVLTKKPKSRRLLVKIDERTGKPIYARVWEFDFKMWGEEELLRVAYELGIGMRNPHGFGMVEVIEGHHHHHH	soluble
MGSDKIHHHHHHMDVRRPIREAVNNRRKPKFLSVSFNQDDSCFSVALENGFRIFNTDPLTSKLSKTFKESATNQSRGTGIGYTRMLYRTNYIALVGGGKRPRHALNKLIIWDDLLQKETITLKFMSSIKDVFLSRIHIVVVLENTIEIFQFQTNPQRICPILDIPPNGSVDYVVCSSKHLQSQASQSQSKILEIIAFPSNKCVGQIQVADLSQIKYNSQNPKESALLPTSIIKAHKNPIKLVRLNRQGTMVATCSVQGTLIRIFSTHNGTLIKEFRRGVDKADIYEMSFSPNGSKLAVLSNKQTLHIFQIFETTNTETNTPDHSRANGSSHPLKNYIPKGLWRPKYLDSVWSICNAHLKNPIFDAHRNDNSGDVTHDNEFYKDRCRIGWCQDSNNREQDDSLVLVWQNSGIWEKFVILEKEQQDSSKTHYSLNESLRNEDTKSAGEPTRWELVRESWREL	not soluble
MAHHHHHHMLHEPVSTANGHMPRRSSLGCRLRSSPFLSCVAYVNTLTCDSLMHALRATVSQRIATGVDVECHRLTSGAAVVSTPTQVHISITSANFVRQRSSRPALLPLLTHPPPPSPSLHPVMSRSRQQQAAEVTLHHFFKTERVIRLECERREAKARLKLIDIMSGDLDDQLLCVAQFKKEWLQSRRVLEEARQAVVQEEGSKRAYVEEEYVRTINTMSRHYHPLSSRVV	not soluble
SAQDLRMSYCYAKFEGGKCSSPKSRNHSKQECCCALKGEGWGDPCELCPTEPDEAFRQICPYGSGIIVGPDDSA	soluble
MAHHHHHHMAAACGCRSLLSRDMPRRFPMCVASGTMCRRLCDCRMEGEERRELRERRCQESRWASCRRAHCPPSPAPPCRAPSITPQHRSRRHQHTARQRMPPPSRVRPEGTRPLLRSEESHRVAQRRAQNLLADSAHDTGQWTLSVCVVEDTAVESLLSSGWTVG	not soluble
MVNRCFFFNRRICFMELFLLRHGKPDIRRSMAIRSVDMYSWIGEYDAAGILDSPDASTVAASEGKFIVSSPMPRALESVAALGLEPDIIIDELHEAPLPVFNIPLLKLTPLVWAALFRIFWMAGGSGGVETFSSVKIRAKLVSCELDKMAETHGSVLSVGHGFMNALVARELQKAGWKRQKVGPSGYWSGIKLVRLEHHHHHH	soluble
MSLIRDRTEPVMSAKLPPVEPVSPTNPRSSASPGSPDRSGLPVVVSVVGLVHTPGLVTLAPGARIADALQAAGGAVDGADTVGLNMARQLGDGEQIVVGLAPPSGQPRVLGSSVGAGTPGPAGTSGTATTGPKTAPKTAEVLDLNTATVEQLDALPGIGPVTAAAIVAWRQRNGRFTSVDQLADVDGIGPARLDKRRNLVRVEGHHHHHH	soluble
MGETKLFFGPNHPGMHGNFSVHMYVEGDIVKKARPVPGFLHRGFEKLMERRYWYSNISLIPRICVPEPDINEICYAMAIEKIAKVEVPERAQWIRMIVLELARIANHIWTVGGIGGPLGLYTASHWGVADRDRILDIFEALSGARVYHMYIIPGGVRKNMTPKIEEMIWKTLDYIESRLPDYENLIFKNRIVHSRLRGRLILTREQAVEMGVTGVGLRATGVEYDIRKVDPYLFYDRVEFEVPTATDGDAFSRVYLKFKEIPQSIKIIRQALEKMPQADRVNVPIGRGNGLRRIVPKGMAYAHVESTRGEYGFFVVSDGKNKPYRVAVRGASYPQGLYGIEKYLPGTRIEDVPIWLATMDVCAPEIDR	soluble
MAQTIQLANHSEMTIIDNDLHVDVIGNQAHFSFSGLHNKTFTDREVLFEMPFLYEHEANVIGDGFQMLAQTSGTITHPIEIGRCPDNIPPYRVYSQHAPKRYYNYLVIEDSAGYTLFGFTTCRRFAGYFDIQQRNGQWILTAAIDGEHTQVADWEHNQ	not soluble
SKHYPEAGIQYSSSTTGDGRPLDIEFSGSCSLEKFYDNPKSNDGNSYRLQSWLYASRLLQYSDALEHLLSTGQGVVLERSIYSDFVFLEAMYNQGFIRKQCVDHYNEIKRLTLPEYLPPHAVIYIDVPVSEIQSRIQKKGDPHEMKVTSAYLQDIEDAYKKTFLPKMSEICEVLVYSSWEAEDSTKVVEDIEYLNYNKGPWLKQDDRTFHNLRMLVQDKREVLNYTTVPVYLPEITIGAHQGSRIYDSFRELPGRKYAPGYNADVGDKWIWLK	soluble
VSDFKYGALLNITTLSNKVLSLGYEKPFIDSGQARTRLNGPLAEFFLYKTDGIFKTQEQIDNYVTPDGEPIMISGKRPQLGDVKYIDTDNNGQITADDRQFCGSPWAKMQMSLVLNAEWKDFDFSMMWNGQFGNKIYNVSKWQGRLFSDNSNYLRFKKGEEPYQVNQNSDTPRIIYGDQRNSWDADRFLENGSYFRLKNISIGYNLKKEWLKNLGIDKLRLYATGSNLLTFTGYSGLDPDFINTNIWNSGTDSFSYPNTRSVMFGLDLTF	not soluble
MIVPALIGSLPRPIGLAKKIELYSIGRLSEEKLEEAYRSYTRKAFENLKKARIKVITDGLYRWDDIFNPLIRFIDGVEVNGLFKFYENNFFYRSPVVRGELSLKENPLPGWISIAQEIKEDVYPEAELKAVLPGPVTLAYHSINEYYKDLNELTEAYATVLRELIKELDVKIMELQEPSLAAELSKATRESEEHVSKEVAKKVIEDLARVKKLWVVTYFGTPQVVPKDVILNIDLIEGNVPDEVKGEVGLGIVNARETKMERADRLKDKLRKYIRKFEKVYVTPNTLLDFLPERVAWKKLKLLGRLGGELEHHHHHH	not soluble
SLERPPALAMPMPTEGTPPPLSGTPIPVPAYFRHAEPGFSLKRPRGLSRSLPPPPPAKGSIPISRLFPPRTPGWHQLQPRRVSFRGEASETLQSPGYDPSRPESFFQQSFQRLSRLGHGSYGEVFKVRSKEDGRLYAVKRSMSPFRGPKDRARKLAEVGSHEKVGQHPCCVRLEQAWEEGGILYLQTELCGPSLQQHCEAWGASLPEAQVWGYLRDTLLALAHLHSQGLVHLDVKPANIFLGPRGRCKLGDFGLLVELGTAGAGEVQEGDPRYMAPELLQGSYGTAADVFSLGLTILEVACNMELPHGGEGWQQLRQGYLPPEFTAGLSSELRSVLVMMLEPDPKLRATAEALLALPVLRQPRAWGVLWCMAAEALSRGWALWQALLALLCWLWHGLAHPASWLQPLGPPATPPGSPPCSLLLDSSLSSNWDDDSLGPSLSPEAVLARTVGSTSTPRSRCTPRDALDLSDINSEPPRGSFPSFEPRNLLSLFEDTLDPT	soluble
